# Experimental data as given in patent US20100279930A1 (published 2010).
# Target: human Y4 receptor (human, UniProt P50391 1-375)
# Assay: 125I-PP displacement
# human Y4 receptor, sequence (P50391 whole entry): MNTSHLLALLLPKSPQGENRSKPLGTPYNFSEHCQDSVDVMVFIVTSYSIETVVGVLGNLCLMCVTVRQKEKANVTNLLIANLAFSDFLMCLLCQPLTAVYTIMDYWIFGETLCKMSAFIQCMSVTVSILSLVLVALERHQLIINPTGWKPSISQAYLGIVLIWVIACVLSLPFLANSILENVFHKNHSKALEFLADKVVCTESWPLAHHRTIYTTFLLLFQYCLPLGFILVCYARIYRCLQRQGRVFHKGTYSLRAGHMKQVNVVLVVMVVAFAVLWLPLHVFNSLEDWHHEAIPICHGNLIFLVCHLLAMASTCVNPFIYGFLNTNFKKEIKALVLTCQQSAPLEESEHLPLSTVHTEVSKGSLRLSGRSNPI
row,IC50 [pM],Binder
1,70,PAPLKPTYPGDNATPEQLAKYAAELRRYINKLTRPRY [4059864]
2,80,YAPLKPEYPGDNATPEQLAKYAAELRRYINKLTRPRY [4059856]
3,71,PAPLKPKAPGDNATPEQLAKYAAELRRYINKLTRPRY [4059862]
4,108,PAPLKPEYPGDNATPEQLAKYAAELRRYINKLTRPRY [4059859]
5,126,PAPLEPTYPGDDATPEQLAKYAAELRRYINKLTRPRY [4060208]
6,68,HAPLKPTYPGDNATPEQLAKYAAELRRYINKLTRPRY [4059863]
7,100,HAPLKPKAPGDNATPEQLAKYAAELRRYINKLTRPRY [4059861]
8,143,GAPLEPVYPGDNATPEELARYAAELRRYINKLTRPRY [4060134]
9,106,GAPLEPTYPGDDATPEQLAKYAAELRRYINKLTRPRY [4060210]
10,143,GAPLEPKYPGDDATPEELAKYAAELRRYINKLTRPRY [4060142]
11,73,GAPLEPTYPGDNATPEQKAKYAAELRRYINKLTRPRY [4060204]
12,61,GAPLEPEYPGDNATPEQMARYAASLRRYINKLTRPRY [4060202]
13,72,GAPLEPEYPGDNATPEQKARYAAALRRYINHLTRPRY [4060130]
14,118,PAPLEPHYPGDNATPEEMAKYASELRRYINKLTRPRY [4059936]
15,77,GAPLEPVYPGDNATPEQMAKYYSELRRYINKLTRPRY [4060147]
16,228,DAPLEPEYPGDDATPEEMAKYAAELRRYINKLTRPRY [4059971]
17,128,PAPLEPHAPGDNATPEEMAKYAAELRRYINKLTRPRY [4059938]
18,108,PAPLEPHYPGDNATPEEMAKYATELRRYINKLTRPRY [4059934]
19,95,DAPLEPVYPGDNATPEQMAKYYSELRRYINKLTRPRY [4060148]
20,151,PAPLEPTYPGDNATPEELARYAAELRRYINKLTRPRY [4060141]
21,173,DAPLEPRYPGDNATPEEMAKYAAELRRYINKLTRPRY [4060145]
22,73,GAPLEPHYPGDNATPEEMAKYAAELRRYINKITRPRY [4059942]

row,IC50 [pM],Binder
1,83,AAPLEPHYPGDNATPEEMARYYSELRRYINKLTRPRY [4059965]
2,101,GAPLEPRYPGDNATPEEMAKYAAELRRYINKLTRPRY [4060144]
3,85,GAPLEPHYPGDNATPEEMAKYATELRRYINKLTRPRY [4059932]
4,81,GAPLEPHYPGDNATPEEMAKYASELRRYINKLTRPRY [4059935]
5,66,GAPLEPHYPGDNATPEEMAKYAAELRRYINKVTRPRY [4059947]
6,121,PAPLEPHYPGDNATPEELARYAAELRRYINKLTRPRY [4060139]
7,77,PAPLEPHYPGDNATPEEMAKYAAELRRYINKITRPRY [4059943]
8,67,PAPLEPTYPGDNATPEQKAKYAAELRRYINKLTRPRY [4060203]
9,95,PAPLEPRYPGDNATPEEMAKYAAELRRYINKLTRPRY [4060143]
10,53,PAPLEPHYPGDNATPEQLARYYSELRRYINKLTRPRY [4059966]
11,67,AAPLEPTYPGDNATPEQLARYYSELRRYINKLTRPRY [4060212]
12,197,AAPLEPVYPGDNATPEELARYAAELRRYINKLTRPRY [4060135]
13,35,AAPLEPVYPGDDATPQQMARYYSELRRYINKLTRPRY [4060214]
14,95,GAPLEPTYPGDNATPEQLAKYYSELRRYINHLTRPRY [4060272]
15,64,GAPLEPHYPGDNATPEQLARYYSELRRYINKLTRPRY [4059967]
16,118,PAPLEPTYPGDNATPEQLAKYYSELRRYINHLTRPRY [4060273]
17,122,AAPLEPEAPGDNATPEQMAKYAAALRRYINKLTRPRY [4059976]
18,128,GAPLEPEYPGDNATPEQKAKYAAALRRYINHLTRPRY [4060274]
19,97,PAPLEPEAPGDNATPEQMAKYAAALRRYINKLTRPRY [4059974]
20,95,GAPLEPEAPGDNATPEQMAKYAAALRRYINKLTRPRY [4059977]
21,106,AAPLEPEYPGDNATPEQMAKYAASLRRYINKLTRPRY [4060146]
